Experimental data from patent publication EP1169642B1.

Target: purified human complement Factor H (human) (UniProt P08603)
Assay: steady state fluorescence titration of purified human Factor H

purified human complement Factor H (human), sequence (P08603 19-1231 limits assumed): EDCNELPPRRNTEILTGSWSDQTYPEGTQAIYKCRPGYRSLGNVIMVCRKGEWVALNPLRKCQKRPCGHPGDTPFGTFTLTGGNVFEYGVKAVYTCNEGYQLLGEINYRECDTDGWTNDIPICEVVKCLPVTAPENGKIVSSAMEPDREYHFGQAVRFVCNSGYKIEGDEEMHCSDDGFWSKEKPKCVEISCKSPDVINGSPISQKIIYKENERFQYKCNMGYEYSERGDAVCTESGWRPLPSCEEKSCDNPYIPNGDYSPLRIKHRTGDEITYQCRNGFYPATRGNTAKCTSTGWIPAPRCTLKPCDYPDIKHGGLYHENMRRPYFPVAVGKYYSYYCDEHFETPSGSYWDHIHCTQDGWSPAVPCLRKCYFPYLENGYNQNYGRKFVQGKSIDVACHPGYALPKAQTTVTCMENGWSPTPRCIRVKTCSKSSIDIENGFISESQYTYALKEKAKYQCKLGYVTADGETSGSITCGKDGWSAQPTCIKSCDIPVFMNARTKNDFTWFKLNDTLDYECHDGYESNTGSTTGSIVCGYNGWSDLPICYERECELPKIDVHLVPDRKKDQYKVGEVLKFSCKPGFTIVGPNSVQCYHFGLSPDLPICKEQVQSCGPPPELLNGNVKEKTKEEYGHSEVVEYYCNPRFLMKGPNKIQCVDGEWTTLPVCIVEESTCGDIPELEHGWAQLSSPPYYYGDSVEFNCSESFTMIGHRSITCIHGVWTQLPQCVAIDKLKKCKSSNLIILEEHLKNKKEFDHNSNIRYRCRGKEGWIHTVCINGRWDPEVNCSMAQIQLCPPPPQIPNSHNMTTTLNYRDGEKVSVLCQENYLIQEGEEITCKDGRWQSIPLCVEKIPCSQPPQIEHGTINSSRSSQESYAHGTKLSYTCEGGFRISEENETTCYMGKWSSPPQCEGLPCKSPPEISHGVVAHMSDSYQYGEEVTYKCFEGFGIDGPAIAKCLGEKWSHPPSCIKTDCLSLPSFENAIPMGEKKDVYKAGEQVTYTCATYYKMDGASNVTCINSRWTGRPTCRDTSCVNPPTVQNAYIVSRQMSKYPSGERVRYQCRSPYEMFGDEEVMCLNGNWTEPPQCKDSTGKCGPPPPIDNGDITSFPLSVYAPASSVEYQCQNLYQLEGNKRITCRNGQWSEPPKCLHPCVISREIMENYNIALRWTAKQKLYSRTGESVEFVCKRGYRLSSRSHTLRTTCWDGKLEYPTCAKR

recombinant osteopontin (rOPN) (from UniProt P10451 17-314) (ligand)
stoichiometry (OPN:Factor H): 1 molar ratio
